Experimental data published in PMC3013012.

Key:
[1] = molecular target: SETDB1 peptide RQVAVKme3STRGFALKme3STHGIAIKme3STN (human)
[2] = molecular target: SETDB1 peptide RQVAVKme2STRGFALKme2STHGIAIKme2STN (human)

Row | Kd [1] [nM] | Kd [2] [µM] | Substance
1 | 1200 | 15 | Cbx7 chromodomain, Cbx7-(8–62) (from UniProt O95931 8-62) (domain or fragment)
2 |  | 180 | Cbx8 chromodomain, Cbx8-(8–61) (from UniProt Q9HC52 8-61) (domain or fragment)
